± gives the uncertainty stated by the source.
Experiment: self-splicing fitness, log relative to wild type (ln ratio); higher = more splicing; Tetrahymena group I intron in knt gene, E. coli kanamycin selection, DiMSum; sequences stand for … in CUCUCU…GGAGGGAAAAGUUAUCAGGCAUGCACCUGGUAGCUAGUCUUUAAACCAAUAGAUUGCAUCGGUUUAAAAGGCAAGACCGUCAAAUUGCGGGAAAGGGGUCAACAGCCGUUCAGUACCAAGUCUCAGGGGAAACUUUGAGAUGGCCUUGCAAAGGGUAUGGUAAUAAGCUGACGGACAUGGUCCUAACCACGCAGCCAAGUCCUAAGUCAACAGAUCUUCUGUUGAUAUGGAUGCAGUUCACAGACUAAAUGUCGGUCGGGGAAGAUGUAUUCUUCUCAUAAGAUAUAGUCGGACCUCUCCUUAAUGGGAGCUAGCGGAUGAAGUGAUGCAACACUGGAGCCGCUGGGAACUAAUUUGUAUGCGAAAGUAUAUUGAUUAGUUUUGGAGUACUCGUGGUCG
How it was run: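 The eight P1ex-region nucleotides of an intron in the knt kanamycin-resistance gene on pET-22b(+) were all randomised and the library put into E. coli BL21(DE3). Six replicate transformations were grown overnight at 37°C or 30°C on LB agar with or without 25 μg/mL kanamycin, together with 100 μg/mL carbenicillin, 50 μM IPTG and 0.2% rhamnose. Colonies were pooled and amplicon-sequenced on an Illumina HiSeq 2500. Fitness from DiMSum is the error-weighted combination of wild-type-normalised replicate fold changes, kanamycin over none.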

Sequence	self-splicing fitness (ln) (30 °C)	self-splicing fitness (ln) (37 °C)
CUCGAGCAAUAUUACGGGCU	-3.17 ± 0.23	-3.24 ± 0.42
CUCGAGCAAUAUUACGGGGA	-2.71 ± 0.2	-1.17 ± 0.18
CUCGAGCAAUAUUACGGGUA	-4.2 ± 0.39	-1.81 ± 0.16
CUCGAGCAAUAUUACGGUAA	-3.49 ± 0.25	-1.88 ± 0.24
CUCGAGCAAUAUUACGGUCG	-3.59 ± 0.28	-2.38 ± 0.34
CUCGAGCAAUAUUACGGUUC	-3.14 ± 0.22	-2.49 ± 0.3
CUCGAGCAAUAUUACGUAUG	-2.93 ± 0.14	-1.2 ± 0.13
CUCGAGCAAUAUUACGUCUU	-4.4 ± 0.21	-3.37 ± 0.21
CUCGAGCAAUAUUACGUGUU	-2.06 ± 0.16	-1.97 ± 0.19
CUCUAGCAAUAUUACGAACU		-4.2 ± 0.42
CUCUAGCAAUAUUACGAUUA	-3.01 ± 0.29	-2.85 ± 0.25
CUCUAGCAAUAUUACGAUUU	-3.27 ± 0.19	-3.01 ± 0.3
CUCUAGCAAUAUUACGCAAG	-3.98 ± 0.27	-1.95 ± 0.2
CUCUAGCAAUAUUACGCAUU	-4.34 ± 0.39	-4 ± 0.39
CUCUAGCAAUAUUACGCGCG	-3.15 ± 0.27	-2.86 ± 0.28
CUCUAGCAAUAUUACGGAAA	-3.74 ± 0.3	-3.54 ± 0.23
CUCUAGCAAUAUUACGGAAC	-2.81 ± 0.47	
CUCUAGCAAUAUUACGGAUC	-3.4 ± 0.21	-3.33 ± 0.33
CUCUAGCAAUAUUACGGAUG	-1.32 ± 0.092	-0.418 ± 0.13

Sequence	self-splicing fitness (ln) (30 °C)	self-splicing fitness (ln) (37 °C)
CUCUAGCAAUAUUACGGAUU	-3.5 ± 0.21	-2.75 ± 0.18
CUCUAGCAAUAUUACGGCCG	-2.41 ± 0.22	-2.2 ± 0.23
CUCUAGCAAUAUUACGGCUA	-2.32 ± 0.26	-1.28 ± 0.24
CUCUAGCAAUAUUACGGGGC	-2.81 ± 0.27	-2.64 ± 0.41
CUCUAGCAAUAUUACGGGGU	-3.87 ± 0.25	-3.39 ± 0.32
CUCUAGCAAUAUUACGUAAC	-3.47 ± 0.29	
CUCUAGCAAUAUUACGUAGA	-3.49 ± 0.27	-1.6 ± 0.17
CUCUAGCAAUAUUACGUAGG	-2.83 ± 0.18	-1.9 ± 0.22
CUCUAGCAAUAUUACGUUGU	-3.36 ± 0.2	-3.68 ± 0.31
CUGAAGCAAUAUUACGAACG	0.17 ± 0.13	0.661 ± 0.17
CUGAAGCAAUAUUACGAACU	-3.64 ± 0.19	-2.37 ± 0.23
CUGAAGCAAUAUUACGACAU	-0.393 ± 0.012	0.115 ± 0.033
CUGAAGCAAUAUUACGACCA	-4.88 ± 0.41	-1.22 ± 0.18
CUGAAGCAAUAUUACGACGA	-1.04 ± 0.097	-0.00885 ± 0.14
CUGAAGCAAUAUUACGAGUA	-3.67 ± 0.28	-2.63 ± 0.3
CUGAAGCAAUAUUACGAGUG	0.0379 ± 0.053	0.068 ± 0.084
CUGAAGCAAUAUUACGAUUG	0.168 ± 0.099	-0.000234 ± 0.12
CUGAAGCAAUAUUACGCCAG	-3.75 ± 0.29	-1.17 ± 0.21
CUGAAGCAAUAUUACGCCUG	-0.0552 ± 0.12	0.982 ± 0.16

Reference: the supplement of paper PMC7877785
